Results from patent US20200399394A1 (SURFACE ONCOLOGY, published 2020).
Values belong to the binder of their own block, whether it stands above or below them.

Tests used:
[1] = target: T1, human CD39 (ectonucleoside triphosphate diphosphohydrolase 1) (human, UniProt P49961 1-510); assay: flow cytometry (MFI), AF488-labelled antibody on SK-MEL-28 cells, FIG. 4A
T1 construct: Endogenous CD39 on MOLP-8 and SK-MEL-28 cells, primary human B cells and primary human monocytes; also called ENTPD1; ATPDase
T1 sequence: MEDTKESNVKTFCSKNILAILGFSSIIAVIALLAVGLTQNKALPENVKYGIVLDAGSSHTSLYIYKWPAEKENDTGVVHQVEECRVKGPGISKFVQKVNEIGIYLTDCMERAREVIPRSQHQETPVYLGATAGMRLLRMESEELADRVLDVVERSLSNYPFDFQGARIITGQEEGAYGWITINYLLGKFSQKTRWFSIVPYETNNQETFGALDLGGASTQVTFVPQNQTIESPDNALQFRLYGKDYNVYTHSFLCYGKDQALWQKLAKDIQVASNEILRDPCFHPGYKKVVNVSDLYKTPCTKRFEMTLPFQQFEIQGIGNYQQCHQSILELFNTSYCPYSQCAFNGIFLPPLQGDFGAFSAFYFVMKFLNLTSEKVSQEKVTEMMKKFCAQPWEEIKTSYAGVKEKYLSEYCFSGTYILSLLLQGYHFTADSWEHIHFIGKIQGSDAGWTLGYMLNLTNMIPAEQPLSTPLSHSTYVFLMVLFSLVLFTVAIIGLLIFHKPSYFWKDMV
Experimental: (§1) The extent of binding to cells was determined and expressed as mean fluorescent intensity (MFI). Cells were washed with FACS Buffer (2 mM EDTA, 2% FBS) and pelleted by centrifugation. The cells were resuspended in FACS buffer containing a dose range of anti-CD39 or isotype control antibodies directly labelled with fluorophore Alexa Fluor 488 (AF488) and incubated for 30 minutes at room temperature. Cells were then washed twice with FACS buffer followed by fixation in 4% paraformaldehyde (PFA) and resuspended in FACS buffer and analyzed on a FACS Canto II analyzer (BD Biosciences).

[2] = target: T1, human CD39 (ectonucleoside triphosphate …); assay: flow cytometry (MFI), AF488-labelled antibody, told under FIG. 4B (MOLP-8 cells; the sentence prints SK-MEL-28)
Experimental: as §1

binding result [1]: binds
B1: SRF365-A (antibody, human IgG4 S228P, kappa, V domains shown)
VH: QVQLVQSGAEVKKPGSSVKVSCKASGGTFSDKAISWVRQAPGQGLEWMGSILPIFGTANYAQKFQGRVTITADESTSTAYMELSSLRSEDTAVYYCAREAGYYRYRYFDLWGRGTLVTVSS
VL: EIVMTQSPATLSVSPGERATLSCRASQSVSSNLAWYQQKPGQAPRLLIYGASTRATGIPARFSGSGSGTEFTLTISSLQSEDFAVYYCQQHALWPLTFGGGTKVEIKR

binding result [2]: binds
B2: SRF370-A (antibody, human IgG4 S228P, kappa, V domains shown)
VH: QVQLVQSGAEVKKPGSSVKVSCKASGGTFSTYAIGWVRQAPGQGLEWMGGIIPAFGTANYAQKFQGRVTITADESTSTAYMELSSLRSEDTAVYYCARDPVRRSPFDIWGQGTMVTVSS
VL: EIVLTQSPATLSLSPGERATLSCRASQSVSSYLAWYQQKPGQAPRLLIYDSSNRATGIPARFSGSGSGTDFTLTISSLEPEDFAVYYCQQSFLWPRTFGGGTKVEIKR
